From the nanobody polyreactivity screen of Harvey et al. (2022)

Assay: yeast display, Sf9 membrane polyspecificity reagent, FACS + sequencing; frameworks hold sequencing errors
Method in brief: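 In a synthetic yeast display library (Saccharomyces cerevisiae BJ5465), nanobody expression was induced with galactose for 36–48 hours. FACS gates were set low and high (top ~1%) using anti-HA fluorescence for expression and streptavidin fluorescence for binding of the Sf9 membrane reagent. Each polyreactivity label is drawn from the gate of origin.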

| Sequence | polyreactivity (PSR sort gate) |
| --- | --- |
| QDQLVESGGGLVQAGGSLRLSCAAYGRTLRRYAMGWYRQAPGKERELVAAISRSGSSTYADSVKGRFTISRDNAKNTVYLQMNSLKPEDTAVYYCNAYQPRYGYWGQGTQVTVSS | high polyreactivity |
| QVQLVESGGGLVQAGGSLRLSCAASGFIFTTYAMGWYRQAPGKERELVAAISYRTGRTFYADSVKGRFTISRDNAKNTVYLQMNSLKPEDTAVYYCAAGTIQTVTTYWWTYRIGLGYWGQGTKVTVSS | high polyreactivity |
| QVQLVESGGGLVQAGGSLRLTCAASGRIFGYYVMGWYRQAPGKERELVAAIRSSADSTYYADSVKGRFTISRDNAKNTVYLQMNSLKPEDTAVYYCNADTTGYWSYGFQYYGEDYWGQGTQVTVSS | low polyreactivity |
| QVQLVESGGGLVQAGGSLRLSCAASGSTFGRYAMGWYRQAPGKERELVAAISRRGGSTYYADSVKGRFTISRDNAKNTVYLQMNSLKPEDTAVYYCATGYPIDLGREFDYWGQGIQVTVSS | high polyreactivity |
| QVQLVESGGGLVQAGGSLRLSCAASGFIFSRNAMGWYRQAPGNERDLVAAISLRGGSTYYTDSVKGRFTISRDNAKNTVYLQMISLKPEDTAVYYCAAVSGRYLTRDGYWGQGTQVTVSS | high polyreactivity |
| QVQLVESGGGLVQAGGSLRLSCAASGYIFRGYVMGWYRQAPGKERELVAAITSSGGSTYYADSVKGRFTISRDNAKNTVYLQMISLKPEDTAVYYCAARGYSPHYYWGQGTQVTVSS | high polyreactivity |
| QDQLVESGGGLVQAGGSLRLSCAASGSIFGRNTMGWYRQAPGKERELVAAISSSGGSTRYADSVKGRFTISRDNAKNTVYLQMNSLKPEDTAVYYCNAKRYGGRQASYNLGDYWGQGTEVTVSS | high polyreactivity |
| QVQLVESGGGLVQAGGSLRLSCAASGSIFSYNAMGWYRQAPGKERELVAAIDWSGGSTYYADSVKGRFTISRDNAKNTVYLQMNSLKPVDTAVYYCNAVGVFYYSYHYHQYDYWGQGTQVTVSS | low polyreactivity |
| QVQLVESGGGLVQAGGSLRLSCAASGSTSYYYAMGWYRQAPGKERELVAAISYSGGRTYYADSVKGRFTISRDNAKNTVYLQMNSLKPEDTAVYYCAKTFRGQPYLRYRYYYWGQGTQVTVSS | high polyreactivity |
| QVQLVESGGGLVQAGGSLRLSCAASGSTFTINVMGSYRQAPGKERELVAAINGGGRTNYADSVKGRFTISRDNAKNTVYLQMNSLKPEDTAVYYCAADGLSNVRQMDYWGQGTQVTVSS | low polyreactivity |
| QVQLVESGGGLVQAGGSLRLSCAASGIIFQAYDMGWYRQAPGKERELVAAISYSGGSTYYADSVKGRFTISRDNAKNTVYLQMNSQKPEDTAVYYCAATFYGYFDSVFSWGYYYCGQGTQVTVSS | low polyreactivity |
| QVQLVESGGGLVQAGGSLRLSCAASGRTLSYYAMGWYRQAPGKEREFVAAITGSGGSTYYADSVKGRFTISRDNAKYTVYLQMNSLKPEDTAVYYCNAKGLGVFTVEYYYWGQGTQVTVSS | low polyreactivity |
| QVQLVESGGGLVQAGGSLRLSCAASGYILRYYGLGWYRQAPGKERELVAAITRGVSTNYADSVKGRFSISRDNAKNTVYLKMNSLKPEDTAVYYCAAKYYPYSSLSKPWTMDYWGQGTQVTVSS | low polyreactivity |
| QVQLVESGGGLVQAGGSLRLSCAASGRTFAAYAMGWYRQAPGKERELVATIRRGGTTDYADSVKGRFTISRDNAKNTVYLQMNSLKPEDTAVYYCNARSRTYRTRRYDYWGQGTQVTVSS | high polyreactivity |
| QVQLVESGGGLVQAGGSLRLSCAASGSIFGGYAMGWYRQAPGKERELVAAITWGGGSTYYADSVKGRFTISRDNAKNTVYLQMNSLKPEDTAVYYCAADRSWYDWEDDYWGQGTQVTVSS | low polyreactivity |
| LVQLVESGRGLVQAGGSLRLSCAASGSTFRINAMGWYRQAPGKERELVADINSGGNTTYADSVKGRFTISRDNAKNTVYLQMKSLIPEDTAVSYCAADPVFDLWEFLLDYGYDYWGQGSQVTVSS | low polyreactivity |
| QVQLVESGGGLVQAGGSLRLSCAASGSTFYYNAMGWYRQAPGKERELVAVINSGGSTYYADSVKGRFTISRDNAKNTVYLQMNSLKPEDTAVYYCARRRRESRQDGDYWGQGTQVTVSS | high polyreactivity |
| QVQLVESGGGLVQAGGSLRLSCAASGITFYRNAMGWYRQAPGKERELVAAIDVGDGTYYADSVKGRFTISRDNAKNTDYLQMNSLKPEDTAVYYCNKTFLFLEYDSWGQGTQVTVSS | low polyreactivity |
| QVQLVESGGGLVQAGGSLRLSCAASGSIFSNYAMGWYRQAPGKERELVAAISRNGGSTSYADSVKGRFTISRDNAKNTVYLQMNSLKPEDTAVYYCAAVYVTGSYRYGYWGQGTQVTVSS | high polyreactivity |
| QVQLVESGGGLVQAGGSLRLSCAASGRIFKGNAMGWYRQAPGKEREFVAAISQRGGSTYYADSVKGRFTISRDNAKNTVYLQMNSLKPEDTAVYFCAAAAQRPEGYYWGQGTQVTVSS | high polyreactivity |
| QVQLVESGGGLVQAGGSLRLSCAASGFIFTYYALGWYRQAPGKERELVAAITIGGTTNYADSVKGRFTISRDNAKNTVYLQMNSLKPEDTAVYYCAAYFTIEDWYYNEAVRYYYWGQGTKVTVSS | high polyreactivity |
| QVQLVESGGGLVQAGGSLRLSCAAYGRTLRYYAMGWYRQAPGKERELVAAISSGGTTNYADSVKGRFTISRDNAKNTVYLQMNSLKPEDTAVYYCAARYRRFRFTQYDYWGQGTQVTVSS | high polyreactivity |

| Sequence | polyreactivity (PSR sort gate) |
| --- | --- |
| QVQLVESGGGLVQAGGSLRLSCAASGLTFRGYTMGWYRQAPGKERELVARITYSGGSTYYADSVKGRFTISRDNAKNTVYLQMNSLKPEDTAVYYCAKEIWRHWTGDYWGQGTQVTVSS | high polyreactivity |
| QVQLVESGGGLVQGGGSLRLSCAASGINFSVYPMGWYRQAPGKERELVAAISVGGGRTYYAYSVKGRFTISRDYAKNTFYLEMNSLKAEDTAVYYCDARLGTRQYKMDYWGQGTQVTVSS | high polyreactivity |
| QVQLVESGGGIVQAGGILRLSCAASGRTLHYSAMVWYRQAPRIERELVAAISARGGRTYYADSVKGRYTISLDNAKNTVYLQMTSLKPEDTAVYYCAAAGYITGSDRYDYWGQGTLVTVSS | high polyreactivity |
| QVQLVESGGGLVQAGGSLRLSCAASGSTFPVYAMGWYRQAPGKERELVAAINSGVSTNYADSVKGRFTISRDNAKNTVYLQMNSLKPEDTAVYYCNTSYVGYPDLGINYEFDYWGQGTQVTVSS | low polyreactivity |
| QVQLVESGGGLVQAGGSLRLSCAASGFTFWLYAMGCYRQAPGKEREFVAAISTSGGSTYADSVKGRFTISRDNAKNTVYLQMNSLKPEDTAVYYCNAGYLLYYDYHLFYWGQGTQVTVSS | low polyreactivity |
| QVQLVESGGGLVQAGGSLRLSCAASGSIFTWYAMGWSRPAPGKERELVAAITRGGSTYADSVKGRFTISRDNAKNTVYLQMNSLKPEDSAVYYCNAVYGVYDFNYWGQGTQVTVSS | low polyreactivity |
| QVQHVESGGGLVQAGGSLRLSCAASGFTIYYYAMGWYRQAPGKERELVAAISTRDGNTYYADSVKGRFTMSRDNAKNTVYLQMNSLKPEDTAVDYCAADYFRYYPYDYWGQGTQVTVSS | low polyreactivity |
| QVQLVESGGGLVQAGGSLRLSCAASGSIFRGNAMGWYRQAPGKERELVAVITWSGGSTYYADSVKGRFTISRDNAKNTVYLQMNSLKPEDTAVYYCNAARKQRVYFAGDYWGQGTQVTVSS | high polyreactivity |
| QVQHVQSGGGLVQAGGSLPLSCDASASIFKYYTMGWYRQAPGKERELVATINFSGASTYYADSVKGRFTISRDNAKNTVYLQINSLKPEDTAVYYCAAVSSSTYRYYYWGQGTQVTVSS | high polyreactivity |
| QDHLVESGGGLVQAGGSLRLSCAASGRIFTPNAMGWYRQAPGKERELVAAITSGGSTNYADSVKGRFTISRDNAKNTVYLQMNSLKPQDTAVYYCAVRYYYCSKKRNYWGQGTHVTVSS | high polyreactivity |
| QVQLVESGGGLVQAGGSLRLSCAASGSTFAGNTMGWSRQAPGKERELVAAITWNGGRTRYADSVKGRFTISRDNAKNTVYLQMNSLKPEDTAVYYCNAGPWYENMDYWGQGTQVTVSS | high polyreactivity |
| QVQLVESGGGLVQAGGSLSLSCAASGSTFQLYAKGWYRQAPGKERELVAAISGIGDSTYYADSVKWRFTISRDNAKNTVYLLMNSLKPEDTAVYYCAREFSDGLSGKFDYWGHGTQVTVSS | low polyreactivity |
| QVQLVESGGGLVQAGGSLRLSCAASGSTFRFYAMGWYRQAPGKERELVAVISSAGSTNYADSVKGRFTISRDNAKNTVYLQMNSLKTEDTAVYYCAAYRRYSIYNYWGQGTQVTVSS | high polyreactivity |
| QVQLVDSGGGLVQAGGRLRLSCAASGSTFRLYAMGWYRQAPGKERELVAAISSNGVRTYYADSVKGRFTISRDNAKNTVYLQLNSLKPEDTAVYYCAARVYPAYPRGYDYWGQGTQVTVSS | high polyreactivity |
| QVQLQESGGGLVQVGGSLRLSFAASGTIFIYGFLGWNLQAPGKERELVASINLGGITNYADSVKGRFTISRDNAKNTVYLQMLSLKPEDTAVYYCAAYVVTGQNYGYWGQGTQVTVSS | low polyreactivity |
| QVQLVESGGGLVQAGGSLRLSCAASGSIFASNTMGWYRQAPGKERELVAGITKIGSSTYYADSVKGRFTISRDHAKNTVYLQMNSLKPEDTSVYYSNAYGPNIYSSRYDYWGQGTQVTLSS | low polyreactivity |
| QVQLVESGGGLVQAGGSLRLSCAASGSIVGTYAMGWYRQAPGKERELVAAITWRGGNTYYADSVKGRFTISRDNAKNTVYLQMNSLKPEDTAVYYCAARGYKSSRRYYYWGQGTQVTVSS | high polyreactivity |
| QVQLVESGGGLVQAGGSLRLSCAASGRIFNLYAMGWYRQAPGKERELVAAISSGGSTYYADSVKGRFTISRDNAKNTVYLQMNSLKPEDTAVYYCAAKNGDRYARGYWGQGTQVTVSS | high polyreactivity |
| QVQLVESGGGLVQAGGSLRLSCAASGFIFYDYAMGWYRQAPGKERELVAGITDSGGSTSYADSVKGRFTISRDNAKNTVYLHMNSLKPEDTAVYYCAADNYVRAGINYDYWGQGTQVTVSS | low polyreactivity |
| QVQLVESGGGLVQAGGSLRLSCAASGRIFWYYVMGWSRQAPGKEREFVASISSGGSTYYADSVKGRFTISRDNAKNTVYLQMNSLKPEDTAVYYCNAYVYGQRVWYDYWGQGTQVTVSS | high polyreactivity |
| QVQLVESGGGLVQAGGSLRLSCAASGRTFGRYTMGWYRQAPGKERELVAAITGRGGSTFYADSVKGRFTISRDYAKNTVYLQMNSLKPEDTAVYYCAARRTSIKDQFYYWGQGTQVTVSS | high polyreactivity |
